Laboratory results from the supplement of paper PMC10065799, “High-throughput profiling of sequence recognition by tyrosine kinases and SH2 domains using bacterial peptide display” (eLife, 2023).
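Further: 11-residue human phosphosite peptides and single-mutation variants displayed on the E. coli surface, counted by deep sequencing, each peptide's frequency after selection divided by its frequency in the unselected input library; frequency after pTyr selection over input frequency; kinase dosed for 20-30% of maximal phosphorylation in three min.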

Each sequence was assayed against FGFR3 (UniProt P22607) (assay: phosphorylation enrichment, bacterial display (enrichment ratio); higher = better substrate or ligand; peptides without Tyr show the background).
FGFR3, sequence (P22607 whole entry, looked up): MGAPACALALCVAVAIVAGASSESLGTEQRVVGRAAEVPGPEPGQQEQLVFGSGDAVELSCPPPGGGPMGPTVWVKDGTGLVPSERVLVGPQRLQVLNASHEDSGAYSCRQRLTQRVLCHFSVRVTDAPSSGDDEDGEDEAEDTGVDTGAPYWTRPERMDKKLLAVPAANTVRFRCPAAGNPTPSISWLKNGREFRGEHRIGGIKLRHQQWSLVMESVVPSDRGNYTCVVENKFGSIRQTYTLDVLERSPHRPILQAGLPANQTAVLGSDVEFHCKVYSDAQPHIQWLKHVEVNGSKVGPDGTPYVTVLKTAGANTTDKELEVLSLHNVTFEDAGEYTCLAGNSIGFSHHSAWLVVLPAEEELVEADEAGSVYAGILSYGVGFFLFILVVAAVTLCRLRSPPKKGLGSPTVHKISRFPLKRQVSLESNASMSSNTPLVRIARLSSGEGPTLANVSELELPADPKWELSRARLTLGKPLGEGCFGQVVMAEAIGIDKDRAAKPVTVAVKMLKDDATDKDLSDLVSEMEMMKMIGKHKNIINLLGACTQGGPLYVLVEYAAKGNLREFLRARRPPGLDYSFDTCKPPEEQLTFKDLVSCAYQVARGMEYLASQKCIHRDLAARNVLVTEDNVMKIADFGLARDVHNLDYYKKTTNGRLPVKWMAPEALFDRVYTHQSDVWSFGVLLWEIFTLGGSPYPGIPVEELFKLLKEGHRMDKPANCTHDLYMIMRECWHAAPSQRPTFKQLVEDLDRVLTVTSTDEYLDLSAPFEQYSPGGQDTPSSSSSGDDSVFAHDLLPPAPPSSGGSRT
QGLRLYRPHLP [BTK_Y617_A622P] was tested, and the phosphorylation enrichment was 0.408. For HFGCVYYGTLL [MET_Y1093_H1094Y], the phosphorylation enrichment was 2.19. In the case of KANEYYPVVII [ADAMTS18_Y765_L769I], the phosphorylation enrichment is reported as 10.8. With KDHPDYKFQPR [SOX10_Y171_YF] the phosphorylation enrichment was 0.543. Work on MCDKEYFSVHN [MET_Y1234_Y1230C_YF] yielded a phosphorylation enrichment of 1.47. Sequence HLVSEYQQFQD [TUBB3_Y422_D417H_YF] has a phosphorylation enrichment of 0.54. VLTSKYCGGGG [HBA1_Y141_R142C] gave a phosphorylation enrichment of 0.577. MGSFNYLGFPR [SPTLC2_Y178_A182P_YF] showed a phosphorylation enrichment of 0.534. In the case of NFATLHLKIFH [PDE6B_Y219_Y219H_YF], the phosphorylation enrichment is reported as 0.817. NNPAFYVLEGV [INPPL1_Y987_YF] was tested, and the phosphorylation enrichment was 0.612. For FSQQTYFRVSN [ABCD1_Y180_YF], the phosphorylation enrichment was 1.19. Work on KPPFSYNALIR [FOXG1_Y186_M191R] yielded a phosphorylation enrichment of 0.519. For DPEATYTTSGG [EPHA2_Y772], the phosphorylation enrichment was 0.754. In the case of LYVDVYGPSVP [NUBPL_Y109_D105Y], the phosphorylation enrichment is reported as 2.02. Sequence MKGDYYRSLAE [YWHAG_Y131_Y133S] has a phosphorylation enrichment of 0.742. GRVLGYGTFGK [FLT4_Y853_A855T] gave a phosphorylation enrichment of 0.414. In the case of EKKQTYGSCRK [LACTB_Y473_R469K], the phosphorylation enrichment is reported as 0.488. In the case of LRIAVYHEILI [CREBBP_Y1450_T1447I], the phosphorylation enrichment is reported as 6.95. NKVQFYIPDMN [NCR1_Y84_K82Q] was tested, and the phosphorylation enrichment was 0.711. KDGSGYISAAE [CALM1_Y100_N98S] showed a phosphorylation enrichment of 0.496. Work on HKNNNYEPNLF [BRCA2_Y57] yielded a phosphorylation enrichment of 0.508. KKYPDYIQIAM [SGMS2_Y59] was tested, and the phosphorylation enrichment was 5.93. In the case of IYRASYVPFAA [RBM47_Y541_G538R], the phosphorylation enrichment is reported as 0.645. For PTDGVYVMPTV [MYO7A_Y1668_S1666G], the phosphorylation enrichment was 2.52. GGFNNYGFGND [HNRNPH3_Y159_YF] was tested, and the phosphorylation enrichment was 0.611. Work on ATAKGYEPDAS [OTC_Y223_P220A] yielded a phosphorylation enrichment of 0.549. With PMWHPYKVDVT [TP53TG5_Y255] the phosphorylation enrichment was 0.872. With FPSLPYSPVSS [CAMKK2_Y128_C123Y_YF] the phosphorylation enrichment was 0.592. PPGRSYSPCDF [TNS1_Y793_Y796C_YF] showed a phosphorylation enrichment of 0.816.

The sequences below were run on Fer (mouse) in the same assay as above.
QGLRLYRPHLP [BTK_Y617_A622P] was tested, and the phosphorylation enrichment was 0.606. HFGCVYYGTLL [MET_Y1093_H1094Y] showed a phosphorylation enrichment of 1.76. For KANEYYPVVII [ADAMTS18_Y765_L769I], the phosphorylation enrichment was 1.45. Work on KDHPDYKFQPR [SOX10_Y171_YF] yielded a phosphorylation enrichment of 0.44. MCDKEYFSVHN [MET_Y1234_Y1230C_YF] was tested, and the phosphorylation enrichment was 0.506. HLVSEYQQFQD [TUBB3_Y422_D417H_YF] showed a phosphorylation enrichment of 0.338. VLTSKYCGGGG [HBA1_Y141_R142C] gave a phosphorylation enrichment of 0.394. For MGSFNYLGFPR [SPTLC2_Y178_A182P_YF], the phosphorylation enrichment was 0.418. For NFATLHLKIFH [PDE6B_Y219_Y219H_YF], the phosphorylation enrichment was 0.565. NNPAFYVLEGV [INPPL1_Y987_YF] was tested, and the phosphorylation enrichment was 0.42. Sequence FSQQTYFRVSN [ABCD1_Y180_YF] has a phosphorylation enrichment of 0.415. Sequence KPPFSYNALIR [FOXG1_Y186_M191R] has a phosphorylation enrichment of 0.446. With DPEATYTTSGG [EPHA2_Y772] the phosphorylation enrichment was 0.502. LYVDVYGPSVP [NUBPL_Y109_D105Y] gave a phosphorylation enrichment of 2.21. MKGDYYRSLAE [YWHAG_Y131_Y133S] gave a phosphorylation enrichment of 0.426. With GRVLGYGTFGK [FLT4_Y853_A855T] the phosphorylation enrichment was 0.393. With EKKQTYGSCRK [LACTB_Y473_R469K] the phosphorylation enrichment was 0.351. LRIAVYHEILI [CREBBP_Y1450_T1447I] showed a phosphorylation enrichment of 2.45. NKVQFYIPDMN [NCR1_Y84_K82Q] showed a phosphorylation enrichment of 0.447. Sequence KDGSGYISAAE [CALM1_Y100_N98S] has a phosphorylation enrichment of 0.369. HKNNNYEPNLF [BRCA2_Y57] was tested, and the phosphorylation enrichment was 0.62. With KKYPDYIQIAM [SGMS2_Y59] the phosphorylation enrichment was 0.52. With IYRASYVPFAA [RBM47_Y541_G538R] the phosphorylation enrichment was 0.521. For PTDGVYVMPTV [MYO7A_Y1668_S1666G], the phosphorylation enrichment was 0.789. With GGFNNYGFGND [HNRNPH3_Y159_YF] the phosphorylation enrichment was 0.463. In the case of ATAKGYEPDAS [OTC_Y223_P220A], the phosphorylation enrichment is reported as 0.473. With PMWHPYKVDVT [TP53TG5_Y255] the phosphorylation enrichment was 0.611. In the case of FPSLPYSPVSS [CAMKK2_Y128_C123Y_YF], the phosphorylation enrichment is reported as 2.1. Sequence PPGRSYSPCDF [TNS1_Y793_Y796C_YF] has a phosphorylation enrichment of 0.689.

Each sequence was assayed against Fes (UniProt P07332) in the same assay as above.
Fes, sequence (P07332 whole entry, looked up): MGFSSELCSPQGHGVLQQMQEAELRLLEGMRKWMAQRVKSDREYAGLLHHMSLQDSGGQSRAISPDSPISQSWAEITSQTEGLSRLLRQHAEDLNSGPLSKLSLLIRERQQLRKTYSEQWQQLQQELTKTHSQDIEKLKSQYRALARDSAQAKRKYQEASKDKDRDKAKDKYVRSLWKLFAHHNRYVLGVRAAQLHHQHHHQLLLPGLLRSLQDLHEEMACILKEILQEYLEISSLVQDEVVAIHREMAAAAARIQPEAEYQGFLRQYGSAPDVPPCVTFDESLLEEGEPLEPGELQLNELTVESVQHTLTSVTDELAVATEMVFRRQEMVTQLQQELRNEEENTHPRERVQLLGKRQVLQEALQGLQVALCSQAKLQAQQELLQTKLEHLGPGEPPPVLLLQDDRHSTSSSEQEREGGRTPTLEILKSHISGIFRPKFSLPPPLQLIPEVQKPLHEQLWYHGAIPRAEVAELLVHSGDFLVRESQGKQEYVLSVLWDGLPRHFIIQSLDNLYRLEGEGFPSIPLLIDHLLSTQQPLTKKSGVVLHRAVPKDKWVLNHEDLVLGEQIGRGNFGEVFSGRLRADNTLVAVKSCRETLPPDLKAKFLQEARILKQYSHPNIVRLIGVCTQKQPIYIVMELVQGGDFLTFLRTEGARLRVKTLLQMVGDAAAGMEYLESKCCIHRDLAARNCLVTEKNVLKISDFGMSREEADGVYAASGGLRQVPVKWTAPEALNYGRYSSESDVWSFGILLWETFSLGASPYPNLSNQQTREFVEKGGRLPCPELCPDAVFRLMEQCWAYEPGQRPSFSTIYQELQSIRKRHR
QGLRLYRPHLP [BTK_Y617_A622P] gave a phosphorylation enrichment of 0.857. HFGCVYYGTLL [MET_Y1093_H1094Y] gave a phosphorylation enrichment of 2.43. KANEYYPVVII [ADAMTS18_Y765_L769I] was tested, and the phosphorylation enrichment was 0.978. With KDHPDYKFQPR [SOX10_Y171_YF] the phosphorylation enrichment was 0.745. Sequence MCDKEYFSVHN [MET_Y1234_Y1230C_YF] has a phosphorylation enrichment of 0.866. HLVSEYQQFQD [TUBB3_Y422_D417H_YF] was tested, and the phosphorylation enrichment was 0.974. VLTSKYCGGGG [HBA1_Y141_R142C] showed a phosphorylation enrichment of 0.772. For MGSFNYLGFPR [SPTLC2_Y178_A182P_YF], the phosphorylation enrichment was 0.983. In the case of NFATLHLKIFH [PDE6B_Y219_Y219H_YF], the phosphorylation enrichment is reported as 1.44. With NNPAFYVLEGV [INPPL1_Y987_YF] the phosphorylation enrichment was 1. FSQQTYFRVSN [ABCD1_Y180_YF] showed a phosphorylation enrichment of 0.723. KPPFSYNALIR [FOXG1_Y186_M191R] gave a phosphorylation enrichment of 0.807. Work on DPEATYTTSGG [EPHA2_Y772] yielded a phosphorylation enrichment of 1.19. Work on LYVDVYGPSVP [NUBPL_Y109_D105Y] yielded a phosphorylation enrichment of 1.32. MKGDYYRSLAE [YWHAG_Y131_Y133S] gave a phosphorylation enrichment of 0.738. With GRVLGYGTFGK [FLT4_Y853_A855T] the phosphorylation enrichment was 0.633. For EKKQTYGSCRK [LACTB_Y473_R469K], the phosphorylation enrichment was 0.685. LRIAVYHEILI [CREBBP_Y1450_T1447I] gave a phosphorylation enrichment of 4.93. With NKVQFYIPDMN [NCR1_Y84_K82Q] the phosphorylation enrichment was 0.984. Work on KDGSGYISAAE [CALM1_Y100_N98S] yielded a phosphorylation enrichment of 0.82. In the case of HKNNNYEPNLF [BRCA2_Y57], the phosphorylation enrichment is reported as 0.767. Work on KKYPDYIQIAM [SGMS2_Y59] yielded a phosphorylation enrichment of 0.949. In the case of IYRASYVPFAA [RBM47_Y541_G538R], the phosphorylation enrichment is reported as 0.897. Sequence PTDGVYVMPTV [MYO7A_Y1668_S1666G] has a phosphorylation enrichment of 1.21. GGFNNYGFGND [HNRNPH3_Y159_YF] gave a phosphorylation enrichment of 0.841. In the case of ATAKGYEPDAS [OTC_Y223_P220A], the phosphorylation enrichment is reported as 0.784. In the case of PMWHPYKVDVT [TP53TG5_Y255], the phosphorylation enrichment is reported as 1.27. For FPSLPYSPVSS [CAMKK2_Y128_C123Y_YF], the phosphorylation enrichment was 0.707. Sequence PPGRSYSPCDF [TNS1_Y793_Y796C_YF] has a phosphorylation enrichment of 1.16.

These sequences were tested against Fyn (UniProt P06241) in the same assay as above.
Fyn, sequence (P06241 whole entry, looked up): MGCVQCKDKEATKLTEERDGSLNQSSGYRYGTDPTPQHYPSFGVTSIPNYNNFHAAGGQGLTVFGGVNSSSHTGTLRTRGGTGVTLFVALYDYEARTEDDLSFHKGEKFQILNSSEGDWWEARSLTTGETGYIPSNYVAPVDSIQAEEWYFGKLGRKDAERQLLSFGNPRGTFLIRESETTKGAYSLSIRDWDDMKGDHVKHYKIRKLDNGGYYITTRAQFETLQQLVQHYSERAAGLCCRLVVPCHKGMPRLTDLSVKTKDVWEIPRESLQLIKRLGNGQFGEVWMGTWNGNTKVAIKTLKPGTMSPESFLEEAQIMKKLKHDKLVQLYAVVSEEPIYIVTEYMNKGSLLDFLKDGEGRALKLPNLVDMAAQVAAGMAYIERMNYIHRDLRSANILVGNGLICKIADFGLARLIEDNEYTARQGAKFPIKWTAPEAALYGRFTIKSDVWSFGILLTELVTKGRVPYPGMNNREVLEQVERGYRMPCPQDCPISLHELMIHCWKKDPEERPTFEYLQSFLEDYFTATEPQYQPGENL
With QGLRLYRPHLP [BTK_Y617_A622P] the phosphorylation enrichment was 0.401. With HFGCVYYGTLL [MET_Y1093_H1094Y] the phosphorylation enrichment was 3.77. KANEYYPVVII [ADAMTS18_Y765_L769I] showed a phosphorylation enrichment of 0.613. With KDHPDYKFQPR [SOX10_Y171_YF] the phosphorylation enrichment was 0.487. Work on MCDKEYFSVHN [MET_Y1234_Y1230C_YF] yielded a phosphorylation enrichment of 0.505. HLVSEYQQFQD [TUBB3_Y422_D417H_YF] gave a phosphorylation enrichment of 0.577. VLTSKYCGGGG [HBA1_Y141_R142C] gave a phosphorylation enrichment of 0.429. MGSFNYLGFPR [SPTLC2_Y178_A182P_YF] gave a phosphorylation enrichment of 0.44. NFATLHLKIFH [PDE6B_Y219_Y219H_YF] gave a phosphorylation enrichment of 0.519. NNPAFYVLEGV [INPPL1_Y987_YF] was tested, and the phosphorylation enrichment was 0.699. For FSQQTYFRVSN [ABCD1_Y180_YF], the phosphorylation enrichment was 0.435. KPPFSYNALIR [FOXG1_Y186_M191R] showed a phosphorylation enrichment of 0.482. In the case of DPEATYTTSGG [EPHA2_Y772], the phosphorylation enrichment is reported as 0.523. With LYVDVYGPSVP [NUBPL_Y109_D105Y] the phosphorylation enrichment was 2.02. For MKGDYYRSLAE [YWHAG_Y131_Y133S], the phosphorylation enrichment was 0.466. Work on GRVLGYGTFGK [FLT4_Y853_A855T] yielded a phosphorylation enrichment of 0.543. Work on EKKQTYGSCRK [LACTB_Y473_R469K] yielded a phosphorylation enrichment of 0.37. In the case of LRIAVYHEILI [CREBBP_Y1450_T1447I], the phosphorylation enrichment is reported as 3.37. For NKVQFYIPDMN [NCR1_Y84_K82Q], the phosphorylation enrichment was 0.411. For KDGSGYISAAE [CALM1_Y100_N98S], the phosphorylation enrichment was 0.476. In the case of HKNNNYEPNLF [BRCA2_Y57], the phosphorylation enrichment is reported as 0.577. KKYPDYIQIAM [SGMS2_Y59] showed a phosphorylation enrichment of 0.448. IYRASYVPFAA [RBM47_Y541_G538R] showed a phosphorylation enrichment of 0.593. PTDGVYVMPTV [MYO7A_Y1668_S1666G] showed a phosphorylation enrichment of 14. Sequence GGFNNYGFGND [HNRNPH3_Y159_YF] has a phosphorylation enrichment of 0.465. ATAKGYEPDAS [OTC_Y223_P220A] gave a phosphorylation enrichment of 0.441. For PMWHPYKVDVT [TP53TG5_Y255], the phosphorylation enrichment was 1.3. Sequence FPSLPYSPVSS [CAMKK2_Y128_C123Y_YF] has a phosphorylation enrichment of 0.479. Work on PPGRSYSPCDF [TNS1_Y793_Y796C_YF] yielded a phosphorylation enrichment of 0.431.
